Assay results published in publication PMC5999314.

Molecular target: dengue poly-immunoglobulin G scaffold (D-PIGS), unfractionated, from ∆XF N. benthamiana
Assay: SPR; Biacore X100, affinity layout: 200 RU of D-PIGS (unfractionated) or hIgG1 captured on immobilised protein A (CM5 chip); CD16a or CD64 injected as analyte, 12.5 to 800 nM, contact 60 s, 50 uL/min, dissociation 200 s; two-state model for CD16a, 1:1 model for CD64

## recombinant human CD16a (from UniProt P08637 17-208) (receptor)
  Kd: 24.8 nM
